Target: Ac-Ubc9K65 (Ubc9 acetylated at K65), P63279
Test: ITC; 2 μl additions of peptide to 200 μl of WT Ubc9 or Ac-Ubc9K65; 25 °C; pH 8.0, 20 mM potassium phosphate, 100 mM NaCl; iTC200; fitted assuming 1:1 binding stoichiometry

Chain of Ac-Ubc9K65 (Ubc9 acetylated at K65), P63279 (P63279 whole entry): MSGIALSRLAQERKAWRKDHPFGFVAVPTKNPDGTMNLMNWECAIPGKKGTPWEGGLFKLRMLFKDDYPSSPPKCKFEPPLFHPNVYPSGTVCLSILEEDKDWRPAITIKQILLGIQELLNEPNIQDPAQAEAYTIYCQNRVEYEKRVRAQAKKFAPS

Q: For VKVEVKEEEESSSN (modifications not checked) [CBP NDSM peptide], which Kd is on record?
A: 105 µM

Source: publication PMC5727262, “Molecular mechanism of K65 acetylation-induced attenuation of Ubc9 and the NDSM interaction” (Scientific Reports, 2017)
